Assays:
[1] = target: IL13RA2 on tumor cell lines (U251MG.Luc, U87MG.Luc, U87MG.Luc clone2, U138MG.Luc, A375.Luc) (UniProt Q14627); experiment: cell-based or functional assay
[2] = target: T1, recombinant human IL13RA2 (human, UniProt Q14627 27-343); experiment: phage ELISA on plates coated with recombinant human IL13RA2, anti-M13-HRP, A450
T1 construct: Coating antigen of the phage ELISA screen; The immunogen was ACRO Cat. No. IL2-H52H5; also called antigen proteins
T1 sequence (looked up): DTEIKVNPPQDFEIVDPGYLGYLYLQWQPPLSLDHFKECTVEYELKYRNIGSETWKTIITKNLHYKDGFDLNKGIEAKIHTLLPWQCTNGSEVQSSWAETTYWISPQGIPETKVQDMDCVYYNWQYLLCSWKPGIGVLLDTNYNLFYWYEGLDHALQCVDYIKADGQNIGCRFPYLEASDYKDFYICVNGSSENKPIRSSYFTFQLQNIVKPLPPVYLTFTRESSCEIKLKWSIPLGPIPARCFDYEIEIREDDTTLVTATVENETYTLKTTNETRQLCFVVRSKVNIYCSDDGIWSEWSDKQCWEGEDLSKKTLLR
Method: Individual output phage clones were grown in 96-deep-well plates and rescued by M13KO7 helper phage overnight. To identify clones that bound to antigen proteins, 96-well ELISA microtiter plates were coated with recombinant human IL13RA2 in coating buffer overnight at 4° C., and the plates were then blocked with blocking buffer. After blocking, approximately 50 µL per well of phage supernatant from overnight cell culture was added to the plates for 1.5-hour incubation at 4° C. The plates were washed four times, and the HRP-conjugated anti-M13 monoclonal antibody was added to the plates for 45-minute incubation at 4° C. The plates were again washed five times and substrate solution was added to the wells for color developing. Absorbance at 450 nm was measured for each well.

[3] = target: T2, Recombinant IL13RA2-His protein (Sino Biological, Cat #10350-H08H) (human, UniProt Q14627 27-343); experiment: SPR, Biacore 2000; VHH-mIgG1Fc coupled to CM5 chip, IL13RA2-His injected; 1:1 Langmuir fit
T2 construct: Bought protein; also called human IL13RA2 his-tag protein; IL13AR2; not shown: His tag
T2 sequence (looked up): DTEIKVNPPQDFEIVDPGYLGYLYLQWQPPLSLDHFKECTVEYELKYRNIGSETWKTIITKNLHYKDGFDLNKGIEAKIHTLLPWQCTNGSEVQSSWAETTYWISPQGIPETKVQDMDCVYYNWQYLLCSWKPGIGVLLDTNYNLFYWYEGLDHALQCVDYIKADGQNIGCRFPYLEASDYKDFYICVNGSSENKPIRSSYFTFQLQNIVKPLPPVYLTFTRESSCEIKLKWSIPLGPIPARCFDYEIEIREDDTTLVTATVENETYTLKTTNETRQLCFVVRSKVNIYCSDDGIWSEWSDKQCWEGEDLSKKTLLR
Method: The affinity of each VHH-mIgG1Fc for IL13AR2 was determined by SPR using a BIACORE® 2000 analytical system (GE Healthcare). Briefly, each VHH-mIgG1Fc protein was covalently coupled to a CM5(s) sensor chip using 4 μg/ml VHH-mIgG1Fc. Recombinant IL13RA2-His protein (Sino Biological, Cat #10350-H08H) was serially diluted in running buffer (10 mM HEPES, 150 mM NaCl, 3 mM EDTA, 0.05% Tween-20, pH 7.4) and injected at a flowrate of 10 μl/min followed by dissociation. The association and dissociation rate constants were determined using the BIACORE® 2000 evaluation software version 3.0 (Langmuir binding, local fit, 1:1 binding model).

IL13-E13Y CAR (from UniProt P35225 35-146)
IFNγ release level, CAR-T co-cultured with U87MG.Luc (UnT 80) [1]: 580 pg/mL
IFNγ release level, CAR-T co-cultured with U138MG.Luc (UnT 70) [1]: 252 pg/mL
IFNγ release level, CAR-T co-cultured with U251MG.Luc (UnT 196) [1]: 4360 pg/mL

B1: VHH1339 (VHH)
VHH: EVQLVESGGGSVQAGGSLKLSCAASGDIFSMCGMGWYRQAPGKQREMVSRISPRGTAIYPDSLKGRFTVSRDNAKNTLYLQMNSLNTEDTAVYYCAAGGDSASRTPHCRSLNWGQGTQVTVSS
binding result [2]: binds

B2: VHH1353 (VHH)
VHH: EVQLVESGGGSVQAGGSLRLSCAASGYTSSTNCMGWFRQAPGKEREGVASIRGTGGSTYYADSVKGRFTISRDDGKNTLYLQMNSLKPEDTAMYYCAAATGTSFSEARCVTAPPYKYPYWGQGTQVTVSS
binding result [2]: binds

B3: VHH1366 (VHH)
VHH: QVKLEESGGGSVEAGGSLKLSCAGFGDMFSSCGMGWYRQAPGKEREMVSRISPRGTSITIDSVRGRFTISRDNAKNTLALEMNSLKIEDTAVYYCAAGGDSASRTPRCRSLNWGQGTQVTVSS
binding result [2]: binds

B4: VHH1345-mIgG1Fc (Fc fusion)
chain: AVQLVDSGGGSAQVGGSLKLSCTASGYIFSSCGMGWYRQAPGKKREFVTSVSKYGTTTYPDSVKGRFTISLDNAKNTAYLQMNSLKIEDTAVYYCTTLASRGTTCPASVYSGPGTQVTVSSVPRDCGCKPCICTVPEVSSVFIFPPKPKDVLTITLTPKVTCVVVDISKDDPEVQFSWFVDDVEVHTAQTQPREEQFNSTFRSVSELPIMHQDWLNGKEFKCRVNSAAFPAPIEKTISKTKGRPKAPQVYTIPPPKEQMAKDKVSLTCMITDFFPEDITVEWQWNGQPAENYKNTQPIMNTNGSYFVYSKLNVQKSNWEAGNTFTCSVLHEGLHNHHTEKSLSHSPGK
notes: also called VHH-mIgG1Fc chimeric antibody; single VHH chimeric anti-IL13RA2 antibody
Kd [3]: 14 nM
koff [3]: 0.00045 s⁻¹
kon [3]: 33000 M⁻¹ s⁻¹

B5: VHH1343 (VHH)
VHH: QVKLEESGGGSVQAGGSLKLSCAASGYNFSKCGMGWFRRALREERELVAEISNDGTTTYDDSVKGRFTISRDNVKNTVYLQMNNLKTEDTAVYYCASRNPCGLLWGQGTQVTVSS
binding result [2]: binds

B6: VHH1354 (VHH)
VHH: AVQLVDSGGGLVQPGGSLRLSCAASGFTFSTYGMSWVRQPPGKGLEWVSGISPGGDHTTYADSVKGRFTISRDNAKNTLYLQLSSLKTEDTAMYYCTTVPGRSRYGNYNPRGQGTQVTVSS
binding result [2]: binds

B7: VHH1330-(GGGGS)2-VHH1345-mIgG1Fc (Fc fusion)
chain: QVQLVESGGGLVQPGGSLTLSCAASGYRISLYKMGWFRQDPGKQREGVAAVDRNGRTIYADSVKGRFTIYQDNAKNTLDLQMNSLKPEDTAMYYCAADLWRIGSPASLSPTDYGDWGQGTQVTVSSGGGGSGGGGSAVQLVDSGGGSAQVGGSLKLSCTASGYIFSSCGMGWYRQAPGKKREFVTSVSKYGTTTYPDSVKGRFTISLDNAKNTAYLQMNSLKIEDTAVYYCTTLASRGTTCPASVYSGPGTQVTVSSVPRDCGCKPCICTVPEVSSVFIFPPKPKDVLTITLTPKVTCVVVDISKDDPEVQFSWFVDDVEVHTAQTQPREEQFNSTFRSVSELPIMHQDWLNGKEFKCRVNSAAFPAPIEKTISKTKGRPKAPQVYTIPPPKEQMAKDKVSLTCMITDFFPEDITVEWQWNGQPAENYKNTQPIMNTNGSYFVYSKLNVQKSNWEAGNTFTCSVLHEGLHNHHTEKSLSHSPGK
notes: Two VHH domains joined by (GGGGS)2 and fused to mouse IgG1 Fc; also called bi-VHH-mIgG1Fc; bi-VHH chimeric anti-IL13RA2 antibody
Kd [3]: 0.71 nM
koff [3]: 5.4e-05 s⁻¹
kon [3]: 75000 M⁻¹ s⁻¹

B8: VHH1330-mIgG1Fc (Fc fusion)
chain: QVQLVESGGGLVQPGGSLTLSCAASGYRISLYKMGWFRQDPGKQREGVAAVDRNGRTIYADSVKGRFTIYQDNAKNTLDLQMNSLKPEDTAMYYCAADLWRIGSPASLSPTDYGDWGQGTQVTVSSVPRDCGCKPCICTVPEVSSVFIFPPKPKDVLTITLTPKVTCVVVDISKDDPEVQFSWFVDDVEVHTAQTQPREEQFNSTFRSVSELPIMHQDWLNGKEFKCRVNSAAFPAPIEKTISKTKGRPKAPQVYTIPPPKEQMAKDKVSLTCMITDFFPEDITVEWQWNGQPAENYKNTQPIMNTNGSYFVYSKLNVQKSNWEAGNTFTCSVLHEGLHNHHTEKSLSHSPGK
notes: as for B4
Kd [3]: 60 nM
koff [3]: 0.0022 s⁻¹
kon [3]: 37000 M⁻¹ s⁻¹

B9: VHH2110 (VHH)
VHH: QVKLEESGGGSVQAGGSLRLSCAASGIPTRTLFMGWFRQAPGKEREEVARISDNGNTGYADFVKGRFTISKDNSKNTLYLQMSSLKPDDTAMYYCSARRASYSATVLWGQGTQVTVSS
binding result [2]: binds

— patent publication US20260151429A1 (NANJING LEGEND BIOTECH, published 2026)
